Experimental data published in patent publication US20060240487A1 (published 2006).

Experiments:
[1] = target: T1, biotinylated mature GDF-8 dimer (human, UniProt O14793 267-375, biotin on amine groups (lysine residues and/or amino termini); biotin:GDF-8 molar ratio between 0:1 and 3:1); assay: ELISA standard curve parameters of the rat serum experiment; biotinylated GDF-8 on streptavidin plate
T1 construct: Captured on streptavidin-coated plates; also called Biotinylated GDF-8; biotinylated mature GDF-8 protein

[2] = target: T1, biotinylated mature GDF-8 dimer; assay: ELISA standard curve, 4-parameter logistic fit; c = concentration resulting in signal at approximately midpoint between a and d; biotinylated GDF-8 on streptavidin plate
Procedure: To detect MYO-029 in a human serum sample, an ELISA was performed as follows. Streptavidin was adsorbed by first adding streptavidin coating solution (100 μL/well) (5 μg/mL ImmunoPure streptavidin (Pierce) in 0.1 M Carbonate/Bicarbonate buffer, pH 9.6) to the wells of a 96 well plate (high binding flat-bottom microtiter) (Costar, Cat. No. 3590). The plate was covered with sealing film and incubated at 2-8° C. overnight. Using an automatic plate washer, the plate was washed four times (4×) with THST buffer (300 μL/well) (50 mM Tris-HCl, pH 8.0, containing 1.0 mM glycine, 0.5 M NaCl, and 0.05% v/v/ Tween 20® (J. T. Baker)), reversing the orientation of the plate after the second wash. To block, 200 μL of blocking buffer (1% bovine albumin (Sigma), 0.02% sodium azide in PBS (Dulbeccos)) was added to each well. The plate was covered with sealing film and incubated for 1-2 hours at room temperature and then washed as above. […]
A MYO-029 working calibrator solution was prepared of 1080 ng/mL MYO-029 in normal human serum (Bioreclamation, Inc.) The 1080 ng/mL stock was fist diluted 8-fold in assay buffer (THST buffer+4% nonfat dry milk), and then a series of 1.5 fold dilutions of the resulting 135 ng/mL standard were prepared in THST+4% nonfat dry milk+12.5% normal human serum to yield the calibration standard concentrations. […] For human serum, the minimum dilution determined was 1:8. […]

B1: MYO-029 (antibody, V domains shown)
VH: QVQLVQSGAEVKKPGASVKVSCKASGYTFTSYYMHWVRQAPGQGLEWMGIINPSGGSTSYAQKFQGRVTMTRDTSTSTVYMELSSLRSEDTAVYYCARDENWGFDPWGQGTLVTVSS
VL: SYELTQPPSVSVSPGQTATITCSGHALGDKFVSWYQQGSGQSPVLVIYDDTQRPSGIPGRFSGSNSGNTATLTISGTQAMDEADYFCQAWDSSFVFGGGTKVTVL
notes: also called fully human antibody
EC50 [1]: 0.0587 µg/mL
EC50 [2]: 0.0728 µg/mL
